{"source": "patent US10400030B2", "target": "IL-17RA Fc fusion protein (human) (UniProt Q96F46)", "experiment": "BIAcore T200, IL-17RA Fc fusion captured on protein G surface, single-cycle kinetics", "data": [{"binder": "clone 2.2 VH (VHH) VHH: QVQLVQSGAEVKKPGASVKVSCKASGYPFTSYDINWVRQATGRSLEWMGWMNPTNGNTVYAQKFQDRVTMTRNTSISTAYMELSSLRSEDTAVYFCARGRRDDWKNNYWGQGTLVTVSS", "values": [{"measurement": "fold improved affinity against clone 2.1", "result": 5, "unit": "fold"}]}]}
